Test results as given in paper PMC7961048 (2021).
Like-named read-outs stand apart in the source and are kept apart here. Non-standard residues stand in square brackets, D forms with d. No end group written: not given here. *: point of attachment. Biotin = O=C1N[C@H]2[C@H](CS[C@H]2CCCCC(=O)*)N1; pT = C[C@@H](OP(=O)(O)O)[C@H](N)C(=O)O; ttds = NCCCOCCOCCOCCCNC(=O)CCC(=O)*

B1: full-length human 14-3-3σ fused to the C terminus of MBP (natural protein)
chain: MERASLIQKAKLAEQAERYEDMAAFMKGAVEKGEELSCEERNLLSVAYKNVVGGQRAAWRVLSSIEQKSNEEGSEEKGPEVREYREKVETELQGVCDTVLGLLDSHLIKEAGDAESRVFYLKMKGDYYRYLAEVATGDDKKRIIDSARSAYQEAMDISKKEMPPTNPIRLGLALNFSVFHYEIANSPEEAISLAKTTFDEAMADLHTLSEDSYKDSTLIMQLLRDNLTLWTADNAGEEGGEAPQEPQS
B2: unfused 14-3-3ε devoid of the flexible C-terminal tail (domain or fragment)
chain: MDDREDLVYQAKLAEQAERYDEMVESMKKVAGMDVELTVEERNLLSVAYKNVIGARRASWRIISSIEQKEENKGGEDKLKMIREYRQMVETELKLICCDILDVLDKHLIPAANTGESKVFYYKMKGDYHRYLAEFATGNDRKEAAENSLVAYKAASDIAMTELPPTHPIRLGLALNFSVFYYEILNSPDRACRLAKAAFDDAIAELDTLSEESYKDSTLIMQLLRDNLTLWTS
B3: full-length human 14-3-3ε fused to the C terminus of MBP (natural protein)
chain: MDDREDLVYQAKLAEQAERYDEMVESMKKVAGMDVELTVEERNLLSVAYKNVIGARRASWRIISSIEQKEENKGGEDKLKMIREYRQMVETELKLICCDILDVLDKHLIPAANTGESKVFYYKMKGDYHRYLAEFATGNDRKEAAENSLVAYKAASDIAMTELPPTHPIRLGLALNFSVFYYEILNSPDRACRLAKAAFDDAIAELDTLSEESYKDSTLIMQLLRDNLTLWTSDMQGDGEEQNKEALQDVEDENQ
B4: unfused 14-3-3β devoid of the flexible C-terminal tail (domain or fragment)
chain: MTMDKSELVQKAKLAEQAERYDDMAAAMKAVTEQGHELSNEERNLLSVAYKNVVGARRSSWRVISSIEQKTERNEKKQQMGKEYREKIEAELQDICNDVLELLDKYLIPNATQPESKVFYLKMKGDYFRYLSEVASGDNKQTTVSNSQQAYQEAFEISKKEMQPTHPIRLGLALNFSVFYYEILNSPEKACSLAKTAFDEAIAELDTLNEESYKDSTLIMQLLRDNLTLWT
B5: full-length human 14-3-3η fused to the C terminus of MBP (natural protein)
chain: MGDREQLLQRARLAEQAERYDDMASAMKAVTELNEPLSNEDRNLLSVAYKNVVGARRSSWRVISSIEQKTMADGNEKKLEKVKAYREKIEKELETVCNDVLSLLDKFLIKNCNDFQYESKVFYLKMKGDYYRYLAEVASGEKKNSVVEASEAAYKEAFEISKEQMQPTHPIRLGLALNFSVFYYEIQNAPEQACLLAKQAFDDAIAELDTLNEDSYKDSTLIMQLLRDNLTLWTSDQQDEEAGEGN
B6: full-length human 14-3-3τ fused to the C terminus of MBP (natural protein)
chain: MEKTELIQKAKLAEQAERYDDMATCMKAVTEQGAELSNEERNLLSVAYKNVVGGRRSAWRVISSIEQKTDTSDKKLQLIKDYREKVESELRSICTTVLELLDKYLIANATNPESKVFYLKMKGDYFRYLAEVACGDDRKQTIDNSQGAYQEAFDISKKEMQPTHPIRLGLALNFSVFYYEILNNPELACTLAKTAFDEAIAELDTLNEDSYKDSTLIMQLLRDNLTLWTSDSAGEECDAAEGAEN
B7: unfused 14-3-3τ devoid of the flexible C-terminal tail (domain or fragment)
chain: MEKTELIQKAKLAEQAERYDDMATCMKAVTEQGAELSNEERNLLSVAYKNVVGGRRSAWRVISSIEQKTDTSDKKLQLIKDYREKVESELRSICTTVLELLDKYLIANATNPESKVFYLKMKGDYFRYLAEVACGDDRKQTIDNSQGAYQEAFDISKKEMQPTHPIRLGLALNFSVFYYEILNNPELACTLAKTAFDEAIAELDTLNEDSYKDSTLIMQLLRDNLTLWT
B8: full-length human 14-3-3β fused to the C terminus of MBP (natural protein)
chain: MTMDKSELVQKAKLAEQAERYDDMAAAMKAVTEQGHELSNEERNLLSVAYKNVVGARRSSWRVISSIEQKTERNEKKQQMGKEYREKIEAELQDICNDVLELLDKYLIPNATQPESKVFYLKMKGDYFRYLSEVASGDNKQTTVSNSQQAYQEAFEISKKEMQPTHPIRLGLALNFSVFYYEILNSPEKACSLAKTAFDEAIAELDTLNEESYKDSTLIMQLLRDNLTLWTSENQGDEGDAGEGEN

Legend:
Assay in all cases: FP
[1] = molecular target: T1, HPV33 E6 phospho-PBM peptide p33E6 (human papillomavirus type 33)
[2] = molecular target: T1, HPV33 E6 phospho-PBM peptide p33E6; remark: listed apart in the source
[3] = molecular target: T2, HPV35 E6 phospho-PBM peptide p35E6 (human papillomavirus type 35)
[4] = molecular target: T2, HPV35 E6 phospho-PBM peptide p35E6; remark: listed apart in the source
[5] = molecular target: B6
[6] = molecular target: B1
[7] = molecular target: B3
[8] = molecular target: T3, full-length human 14-3-3ζ fused to the C terminus of MBP (human, UniProt P63104 1-245)
T3 chain: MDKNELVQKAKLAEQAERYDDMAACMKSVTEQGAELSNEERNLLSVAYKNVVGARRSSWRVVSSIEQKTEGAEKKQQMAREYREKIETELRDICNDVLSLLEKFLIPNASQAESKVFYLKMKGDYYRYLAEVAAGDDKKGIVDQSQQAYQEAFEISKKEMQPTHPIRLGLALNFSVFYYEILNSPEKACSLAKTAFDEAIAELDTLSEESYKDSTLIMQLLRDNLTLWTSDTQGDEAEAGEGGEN

[9] = molecular target: B5
[10] = molecular target: B8
[11] = molecular target: T4, full-length human 14-3-3γ fused to the C terminus of MBP (human, UniProt P61981 1-247)
T4 chain: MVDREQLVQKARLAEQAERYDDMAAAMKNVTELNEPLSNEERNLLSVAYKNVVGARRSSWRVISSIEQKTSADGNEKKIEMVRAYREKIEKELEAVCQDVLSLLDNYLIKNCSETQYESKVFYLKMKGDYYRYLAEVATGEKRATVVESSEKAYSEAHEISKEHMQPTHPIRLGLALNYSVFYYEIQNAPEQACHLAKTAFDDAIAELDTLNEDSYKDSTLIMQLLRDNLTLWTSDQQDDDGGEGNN

[12] = molecular target: B6
[13] = molecular target: B1
[14] = molecular target: B3
[15] = molecular target: T3, full-length human 14-3-3ζ fused to the …
[16] = molecular target: B5
[17] = molecular target: B8
[18] = molecular target: T4, full-length human 14-3-3γ fused to the …

B1
Kd [1]: 6770 nM
Kd [2]: 6800 nM
Kd [3]: > 300000 nM

B2
Kd [1]: 7940 nM
Kd [4]: > 300000 nM

{Biotin-ttds}-RRVRKLPST[pT]L [RSK1 phospho-PBM peptide RSK1_-1P]
Kd [5]: 780 nM
Kd [6]: 1710 nM
Kd [7]: 1580 nM
Kd [8]: 960 nM
Kd [9]: 460 nM
Kd [10]: 740 nM
Kd [11]: 310 nM
Kd [12]: 800 nM
Kd [13]: 1700 nM
Kd [14]: 1600 nM
Kd [15]: 1000 nM
Kd [16]: 500 nM
Kd [17]: 700 nM
Kd [18]: 300 nM

B3
Kd [2]: 10300 nM
Kd [3]: > 300000 nM

B4
Kd [1]: 6920 nM
Kd [4]: > 400000 nM

B5
Kd [1]: 1980 nM
Kd [4]: 163000 nM
Kd [2]: 2000 nM
Kd [3]: 163000 nM

{Biotin-ttds}-RRVRKLPS[pT]TL [RSK1 phospho-PBM peptide RSK1_-2P]
Kd [5]: 450 nM
Kd [6]: 3570 nM
Kd [7]: 1220 nM
Kd [8]: 1540 nM
Kd [9]: 660 nM
Kd [10]: 960 nM
Kd [12]: 500 nM
Kd [13]: 3600 nM
Kd [14]: 1200 nM
Kd [15]: 1500 nM
Kd [16]: 700 nM
Kd [17]: 1000 nM
Kd [18]: 200 nM

B6
Kd [1]: 3520 nM
Kd [4]: 233000 nM
Kd [2]: 3500 nM
Kd [3]: 233000 nM

B7
Kd [1]: 5150 nM
Kd [4]: 363000 nM

B8
Kd [1]: 4050 nM
Kd [2]: 4100 nM
Kd [3]: > 300000 nM
